Results on 94 variants are retold here after the supplement of paper PMC10567573.

The labels stand for the following.
B1: DLC1 (parent)
chain: RDAIEALCRRLNTLNKCAVMKLEI
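Note: lentivirally expressed fusions sorted by FACS into six bins by GFP to DsRed ratio, PSI derived from sequencing read proportions per bin multiplied by bin number.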

In the data set the parent is B1. Put plainly: protein stability index of a GFP-peptide fusion (GPS, HEK-293T) (PSI 1-6); higher = more stable. The settings on record: c terminus: a fixed tail appended.
In the case of RDAIEALCRRLNTLYKCAVMKLEI [N15Y], the protein stability index was found to be 1.24.
In the case of RDAIEALCRRLNTLIKCAVMKLEI [N15I], the protein stability index was 3.36.
Turning to RDAIEALCRRLNTLGKCAVMKLEI [N15G], the protein stability index came out at 2.33.
With RDAIEALCRRLNTLQKCAVMKLEI [N15Q], the protein stability index is 5.09.
Turning to RDAIEALCRRLNTLVKCAVMKLEI [N15V], the protein stability index amounted to 3.72.
For RDAIEALCRRLNTLTKCAVMKLEI [N15T], the protein stability index was determined as 1.98.
For RDAIEALCRRLNTLHKCAVMKLEI [N15H], the protein stability index was 2.39.
On to RDAIEALCRRLNTLFKCAVMKLEI [N15F], for which the protein stability index stood at 3.09.
For RDAIEALCRRLNTLNCCAVMKLEI [K16C], the protein stability index was 2.44.
As to RDAIEALCRRLNTLNWCAVMKLEI [K16W], the protein stability index was 2.25.
As to RDAIEALCRRLNTLNVCAVMKLEI [K16V], the protein stability index amounted to 2.29.
For RDAIEALCRRLNTLNFCAVMKLEI [K16F], the protein stability index is 3.89.
In the case of RDAIEALCRRLNTLNMCAVMKLEI [K16M], the protein stability index is 2.58.
As to RDAIEALCRRLNTLNACAVMKLEI [K16A], the protein stability index was found to be 2.39.
Regarding RDAIEALCRRLNTLNGCAVMKLEI [K16G], the protein stability index is 3.19.
With RDAIEALCRRLNTLNDCAVMKLEI [K16D] the figure was 1.76; with RDAIEALCRRLNTLNNCAVMKLEI [K16N], 2.96; with RDAIEALCRRLNTLNQCAVMKLEI [K16Q], 3.29.
As to RDAIEALCRRLNTLNTCAVMKLEI [K16T], the protein stability index amounted to 2.71.
For RDAIEALCRRLNTLNICAVMKLEI [K16I], the protein stability index came to 1.93.
For the variant RDAIEALCRRLNTLNLCAVMKLEI [K16L], the protein stability index turned out to be 1.48.
For RDAIEALCRRLNTLNECAVMKLEI [K16E] the value was 2.45; for RDAIEALCRRLNTLNKCAVMKLEH [I24H], 1.73.
Turning to RDAIEALCRRLNTLNKCAVMKLEW [I24W], the protein stability index was determined as 1.66.
As to RDAIEALCRRLNTLNKCAVMKLEM [I24M], the protein stability index is 2.39.
In the case of RDAIEALCRRLNTLNKCAVMKLEL [I24L], the protein stability index stood at 2.75.
On to RDAIEALCRRLNTLNKCAVMKLEV [I24V], for which the protein stability index came to 2.45.
For RDAIEALCRRLNTLNKCAVMKLEY [I24Y], the protein stability index worked out at 1.29.
For RDAIEALCRRLNTLNKCAVMKLEE [I24E] the value was 1.36; for RDAIEALCRRLNTLNKCAVMKLEN [I24N], 1.63.
With RDAIEALCRRLNTLNKCAVMKLEA [I24A], the protein stability index turned out to be 1.18.
Consider RDAIEALCRRLNTLNKCAVMKLER [I24R], for which the protein stability index stood at 1.5.
As for RDAIEALCRRLNTLNKCAVMKLEC [I24C], the protein stability index came out at 3.03.
Consider RDAIEALCRRLNTLNKCAVMKLEK [I24K], for which the protein stability index is 1.87.
For the variant RDAIEALCRRLNTLNKCAVMKLES [I24S], the protein stability index is 1.91.
As to RDAIEALCRRLNTLNKCAVMKLEG [I24G], the protein stability index was determined as 1.13.
For RDAIEALCRRLNTLNKCAVMKLET [I24T] the value was 2.21; for RDAIEALCRRLNTLNKCAVMKLEP [I24P], 1.71; for RDAIEALCRRLNTLNKCAVMKLEQ [I24Q], 1.75.
With RDAIEALCRRLNTLNKCAVMKLEF [I24F] the figure was 2.04; with RDAIEALCRRLNTLNKCAVMKLED [I24D], 1.52; with RDAIEALCRRLNTLNKCAVMKLWI [E23W], 3.37.
For the variant RDAIEALCRRLNTLNKCAVMKLCI [E23C], the protein stability index was found to be 2.07.
As for RDAIEALCRRLNTLNKCAVMKLKI [E23K], the protein stability index was 2.65.
For RDAIEALCRRLNTLNKCAVMKLFI [E23F] the value was 2.3; for RDAIEALCRRLNTLNKCAVMKLQI [E23Q], 4.6.
As for RDAIEALCRRLNTLNKCAVMKLAI [E23A], the protein stability index worked out at 2.38.
With RDAIEALCRRLNTLNKCAVMKLGI [E23G] the figure was 2.23; with RDAIEALCRRLNTLNKCAVMKLII [E23I], 1.47; with RDAIEALCRRLNTLNKCAVMKLHI [E23H], 2.39.
With RDAIEALCRRLNTLNKCAVMKLYI [E23Y] the figure was 1.36; with RDAIEALCRRLNTLNKCAVMKLPI [E23P], 2.27; with RDAIEALCRRLNTLNKCAVMKLDI [E23D], 1.52.
Regarding RDAIEALCRRLNTLNKCAVMKLNI [E23N], the protein stability index was 3.12.
For the variant RDAIEALCRRLNTLNKCAVSKLEI [M20S], the protein stability index was 2.64.
For RDAIEALCRRLNTLNKCAVCKLEI [M20C] the value was 2.27; for RDAIEALCRRLNTLNKCAVGKLEI [M20G], 1.85; for RDAIEALCRRLNTLNKCAVQKLEI [M20Q], 1.45.
For RDAIEALCRRLNTLNKCAVKKLEI [M20K] the value was 1.49; for RDAIEALCRRLNTLNKCAVNKLEI [M20N], 1.88; for RDAIEALCRRLNTLNKCAVAKLEI [M20A], 1.01.
For RDAIEALCRRLNTLNKCAVHKLEI [M20H] the value was 3.39; for RDAIEALCRRLNTLNKCAVDKLEI [M20D], 1.67; for RDAIEALCRRLNTLNKCAVTKLEI [M20T], 2.35.
Turning to RDAIEALCRRLNTLNKCAVRKLEI [M20R], the protein stability index was 1.27.
As for RDAIEALCRRLNTLNKCAVPKLEI [M20P], the protein stability index worked out at 2.02.
For RDAIEALCRRLNTLNKCAVEKLEI [M20E], the protein stability index worked out at 1.49.
Turning to RDAIEALCRRLNTLNKCAVFKLEI [M20F], the protein stability index amounted to 3.51.
For the variant RDAIEALCRRLNTLNKCAQMKLEI [V19Q], the protein stability index turned out to be 1.84.
In the case of RDAIEALCRRLNTLNKCALMKLEI [V19L], the protein stability index was determined as 3.2.
For RDAIEALCRRLNTLNKCADMKLEI [V19D] the value was 2.58; for RDAIEALCRRLNTLNKCAYMKLEI [V19Y], 2.76; for RDAIEALCRRLNTLNKCATMKLEI [V19T], 1.04.
With RDAIEALCRRLNTLNKCAFMKLEI [V19F] the figure was 1.62.
As for RDAIEALCRRLNTLNKCAHMKLEI [V19H], the protein stability index turned out to be 3.85.
RDAIEALCRRLNTLNKCAGMKLEI [V19G]: the protein stability index came to 1.6.
With RDAIEALCRRLNTLNKCAWMKLEI [V19W] the figure was 3.62.
For RDAIEALCRRLNTLNKCAIMKLEI [V19I] the value was 1.67.
Consider RDAIEALCRRLNTLNKCANMKLEI [V19N], for which the protein stability index is 1.89.
As for RDAIEALCRRLNTLNKCAAMKLEI [V19A], the protein stability index stood at 3.74.
For the variant RDAIEALCRRLNTLNKCAVMKGEI [L22G], the protein stability index was determined as 1.5.
For RDAIEALCRRLNTLNKCAVMKNEI [L22N] the value was 1.54; for RDAIEALCRRLNTLNKCAVMKIEI [L22I], 1.89.
For RDAIEALCRRLNTLNKCAVMKEEI [L22E] the value was 1.93.
As for RDAIEALCRRLNTLNKCAVMKYEI [L22Y], the protein stability index turned out to be 2.29.
For the variant RDAIEALCRRLNTLNKCAVMKHEI [L22H], the protein stability index was 1.44.
For RDAIEALCRRLNTLNKCAVMKDEI [L22D], the protein stability index came out at 1.5.
RDAIEALCRRLNTLNKCAVMKQEI [L22Q]: the protein stability index came out at 2.59.
With RDAIEALCRRLNTLNKCAVMKSEI [L22S] the figure was 1.45.
With RDAIEALCRRLNTLNKCAVMKKEI [L22K], the protein stability index turned out to be 1.91.
On to RDAIEALCRRLNTLNKCAVMKCEI [L22C], for which the protein stability index was found to be 2.69.
With RDAIEALCRRLNTLNKCAVMKMEI [L22M] the figure was 3.06; with RDAIEALCRRLNTLNKCAVMKPEI [L22P], 1.43.
Regarding RDAIEALCRRLNTLNKCAVMKTEI [L22T], the protein stability index amounted to 2.54.
